Data: the supplement of paper PMC7125110
± gives the standard error. For some assays here: Fewer inactive variants are shown than the library holds.

B1: glmS ribozyme (parent)
chain: AUAAAAGCGCCAGAACUACAGAAAUGUAGUUGACGAGGAGGAGGUUUAUCGAAUUUUCGGCGGAUGCCUCCAAA

What was measured:
Conditions in all cases: with glucosamine-6-phosphate
glucosamine-6-phosphate [1] = variants of: B1; test: kcat; higher = faster cleavage; RNA array
Summary of the method: (§1)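 Barcoded ribozyme variants were transcribed in situ on sequenced MiSeq chips by E. coli RNA polymerase. At 37 °C, a hybridised Cy3 probe tracked them while glucosamine-6-phosphate (40 μM to 10 mM) in HEPES/KCl/Mg(OAc)2 buffer flowed in and tiles were imaged over ~14 h. Per-tile medians of signals normalised to baseline and to non-cleaving reference variants were fit to one- or two-exponential decays, giving kobs. kcat and KM came from weighted Michaelis–Menten fits across concentrations.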

glucosamine-6-phosphate [2] = variants of: B1; test: KM; higher = weaker cofactor use; RNA array
Summary of the method: as §1

glucosamine-6-phosphate [3] = variants of: B1; test: self-cleavage kobs at 40 uM GlcN6P; higher = faster cleavage; RNA array
Summary of the method: as §1

glucosamine-6-phosphate [4] = variants of: B1; test: self-cleavage kobs at 160 uM GlcN6P; higher = faster cleavage; RNA array
Summary of the method: as §1

glucosamine-6-phosphate [5] = variants of: B1; test: self-cleavage kobs at 640 uM GlcN6P; higher = faster cleavage; RNA array
Summary of the method: as §1

glucosamine-6-phosphate [6] = variants of: B1; test: self-cleavage kobs at 2500 uM GlcN6P; higher = faster cleavage; RNA array
Summary of the method: as §1

glucosamine-6-phosphate [7] = variants of: B1; test: self-cleavage kobs at 10000 uM GlcN6P; higher = faster cleavage; RNA array
Summary of the method: as §1

Variant | kcat (glucosamine-6-phosphate [1]) [s⁻¹] | KM (glucosamine-6-phosphate [2]) [µM] | self-cleavage kobs at 40 uM GlcN6P (glucosamine-6-phosphate [3]) [s⁻¹] | self-cleavage kobs at 160 uM GlcN6P (glucosamine-6-phosphate [4]) [s⁻¹] | self-cleavage kobs at 640 uM GlcN6P (glucosamine-6-phosphate [5]) [s⁻¹] | self-cleavage kobs at 2500 uM GlcN6P (glucosamine-6-phosphate [6]) [s⁻¹] | self-cleavage kobs at 10000 uM GlcN6P (glucosamine-6-phosphate [7]) [s⁻¹]
A15U C70U | 0.00472 ± 0.0018 | 1330 ± 650 | 0.000195 ± 1.7e-05 | 0.000378 ± 4.7e-05 | 0.00147 ± 0.00031 | 0.00286 ± 0.00048 | 0.00469 ± 0.00065
A15U C70A | 6.56e-05 ± 1e-05 |  |  |  | 3.49e-05 ± 1.2e-05 | 6.73e-05 ± 7e-06 | 4.87e-05 ± 1.1e-05
A14U C71A | 0.00123 ± 0.0004 | 2040 ± 970 | 5.26e-05 ± 9.6e-06 | 8.35e-05 ± 1.2e-05 | 0.00027 ± 4.3e-05 | 0.000647 ± 8.4e-05 | 0.00114 ± 0.00019
A15G G32A C70G | 9.72e-05 ± 1.2e-05 |  |  | 0.000115 ± 3.5e-05 | 0.000107 ± 2.6e-05 | 7.81e-05 ± 3e-05 | 9.41e-05 ± 1.1e-05
A15U U49G C50G G63A | 2.96e-05 ± 6.8e-06 |  | < 1e-05 |  |  |  | 
C16A C58G | 3.2e-05 ± 7.1e-06 |  |  |  |  | 4.47e-05 ± 1.2e-05 | 2.59e-05 ± 8.5e-06
C16A A39C U65G | 5.91e-05 ± 2.8e-05 |  |  |  |  | 8.69e-05 ± 3e-05 | 
A15U C16A | 0.00121 ± 9.4e-05 | 2740 ± 310 |  | 6.19e-05 ± 8.7e-06 | 0.000244 ± 2.2e-05 | 0.000544 ± 7e-05 | 0.000959 ± 9.8e-05
A15C C58G | 0.000128 ± 2.1e-05 |  |  |  | 4.09e-05 ± 1.2e-05 | 5.08e-05 ± 1.8e-05 | 0.000111 ± 1.4e-05
A15G U45C | 0.00752 ± 0.0016 | 5570 ± 1600 | 7.04e-05 ± 1.4e-05 | 0.000179 ± 3.2e-05 | 0.000853 ± 0.00012 | 0.00219 ± 0.00027 | 0.00497 ± 0.00061
C16A G37A | 7.68e-05 ± 2.6e-06 | 999 ± 160 |  |  |  | 5.79e-05 ± 1.2e-05 | 6.89e-05 ± 9.4e-06
A15U A53C | 0.000734 ± 0.00026 |  |  | 0.00014 ± 4.7e-05 | 0.000643 ± 0.00016 |  | 0.000636 ± 0.00012
A15C U47C | 0.000622 ± 8.7e-05 | 3550 ± 830 |  |  | 0.000108 ± 2e-05 | 0.000244 ± 4.5e-05 | 0.000465 ± 7.5e-05
A14U G32C C71A | 3.18e-05 ± 4.6e-06 |  | < 1e-05 |  |  |  | 3.33e-05 ± 1.2e-05
A14U G41C | 8.09e-05 ± 1.1e-06 | 2290 ± 95 |  |  |  | 4.2e-05 ± 1.3e-05 | 6.58e-05 ± 1.4e-05
A14U G41A | 0.000406 ± 0.00011 |  |  |  | 9.05e-05 ± 2e-05 | 0.000422 ± 8.6e-05 | 0.000317 ± 5e-05
A15C C16A | 0.00213 ± 0.00077 |  | 5.77e-05 ± 8.7e-06 | 0.000139 ± 3e-05 | 0.000522 ± 8e-05 | 0.000888 ± 0.00013 | 0.00248 ± 0.00031
